Tested on: Abp1 PPIs
Assay: DHFR-PCA of Abp1 SH3-swapped baits (Fig. 2B-D, S2C, S2F);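 on Protein-protein interaction distance between Abp1 SH3-swapped baits, to ABP1: Euclidean distance between DHFR-PCA score profiles of the baits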;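 on Protein-protein interaction distance between Abp1 SH3-swapped baits, to BEM1-2: Euclidean distance between DHFR-PCA score profiles of the baits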;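 on Protein-protein interaction distance between Abp1 SH3-swapped baits, to BOI1: Euclidean distance between DHFR-PCA score profiles of the baits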;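 on Protein-protein interaction distance between Abp1 SH3-swapped baits, to BZZ1-1: Euclidean distance between DHFR-PCA score profiles of the baits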
Type: cell-based, Saccharomyces cerevisiae
Details: sheet Fig2C; for Protein-protein interaction distance between Abp1 SH3-swapped baits, to ABP1: Abp1 bait with swapped SH3, distance to bait with ABP1 SH3; for Protein-protein interaction distance between Abp1 SH3-swapped baits, to BBC1: distance to Abp1 bait with BBC1 SH3; for Protein-protein interaction distance between Abp1 SH3-swapped baits, to BEM1-1: distance to Abp1 bait with BEM1-1 SH3; for Protein-protein interaction distance between Abp1 SH3-swapped baits, to BEM1-2: distance to Abp1 bait with BEM1-2 SH3; for Protein-protein interaction distance between Abp1 SH3-swapped baits, to BOI1: distance to Abp1 bait with BOI1 SH3; for Protein-protein interaction distance between Abp1 SH3-swapped baits, to BOI2: distance to Abp1 bait with BOI2 SH3; for Protein-protein interaction distance between Abp1 SH3-swapped baits, to BUD14: distance to Abp1 bait with BUD14 SH3; for Protein-protein interaction distance between Abp1 SH3-swapped baits, to BZZ1-1: distance to Abp1 bait with BZZ1-1 SH3; for Protein-protein interaction distance between Abp1 SH3-swapped baits, to BZZ1-2: distance to Abp1 bait with BZZ1-2 SH3; for Protein-protein interaction distance between Abp1 SH3-swapped baits, to CDC25: distance to Abp1 bait with CDC25 SH3; for Protein-protein interaction distance between Abp1 SH3-swapped baits, to CTTN: distance to Abp1 bait with CTTN SH3; for Protein-protein interaction distance between Abp1 SH3-swapped baits, to CYK3: distance to Abp1 bait with CYK3 SH3; for Protein-protein interaction distance between Abp1 SH3-swapped baits, to DBNL: distance to Abp1 bait with DBNL SH3; for Protein-protein interaction distance between Abp1 SH3-swapped baits, to FUS1: distance to Abp1 bait with FUS1 SH3; for Protein-protein interaction distance between Abp1 SH3-swapped baits, to HCLS1: distance to Abp1 bait with HCLS1 SH3; for Protein-protein interaction distance between Abp1 SH3-swapped baits, to HOF1: distance to Abp1 bait with HOF1 SH3; for Protein-protein interaction distance between Abp1 SH3-swapped baits, to HSE1: distance to Abp1 bait with HSE1 SH3; for Protein-protein interaction distance between Abp1 SH3-swapped baits, to LSB1: distance to Abp1 bait with LSB1 SH3; for Protein-protein interaction distance between Abp1 SH3-swapped baits, to LSB3: distance to Abp1 bait with LSB3 SH3; for Protein-protein interaction distance between Abp1 SH3-swapped baits, to MYO3: distance to Abp1 bait with MYO3 SH3; for Protein-protein interaction distance between Abp1 SH3-swapped baits, to MYO5: distance to Abp1 bait with MYO5 SH3; for Protein-protein interaction distance between Abp1 SH3-swapped baits, to NBP2: distance to Abp1 bait with NBP2 SH3; for Protein-protein interaction distance between Abp1 SH3-swapped baits, to PEX13: distance to Abp1 bait with PEX13 SH3; for Protein-protein interaction distance between Abp1 SH3-swapped baits, to PIN3: distance to Abp1 bait with PIN3 SH3; for Protein-protein interaction distance between Abp1 SH3-swapped baits, to RVS167: distance to Abp1 bait with RVS167 SH3; for Protein-protein interaction distance between Abp1 SH3-swapped baits, to SDC25: distance to Abp1 bait with SDC25 SH3; for Protein-protein interaction distance between Abp1 SH3-swapped baits, to SHO1: distance to Abp1 bait with SHO1 SH3; for Protein-protein interaction distance between Abp1 SH3-swapped baits, to SLA1-1: distance to Abp1 bait with SLA1-1 SH3; for Protein-protein interaction distance between Abp1 SH3-swapped baits, to SLA1-2: distance to Abp1 bait with SLA1-2 SH3; for Protein-protein interaction distance between Abp1 SH3-swapped baits, to SLA1-3: distance to Abp1 bait with SLA1-3 SH3; for Protein-protein interaction distance between Abp1 SH3-swapped baits, to YSC84: distance to Abp1 bait with YSC84 SH3
Summary of the method: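 Yeast DHFR-PCA in which Abp1 baits, carrying their SH3 replaced by CRISPR–Cas9 with one of 27 yeast SH3s or human CTTN, HCLS1 or DBNL SH3s, were mated against 575 SH3-associated DHFR F[3] preys plus 40 negative controls. Four tests were run per PPI. Diploids were selected twice (48 h, 30 °C), then grown 4 days on PCA selection media.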

Molecule | Protein-protein interaction distance between Abp1 SH3-swapped baits, to ABP1 | Protein-protein interaction distance between Abp1 SH3-swapped baits, to BBC1 | Protein-protein interaction distance between Abp1 SH3-swapped baits, to BEM1-1 | Protein-protein interaction distance between Abp1 SH3-swapped baits, to BEM1-2 | Protein-protein interaction distance between Abp1 SH3-swapped baits, to BOI1 | Protein-protein interaction distance between Abp1 SH3-swapped baits, to BOI2 | Protein-protein interaction distance between Abp1 SH3-swapped baits, to BUD14 | Protein-protein interaction distance between Abp1 SH3-swapped baits, to BZZ1-1 | Protein-protein interaction distance between Abp1 SH3-swapped baits, to BZZ1-2 | Protein-protein interaction distance between Abp1 SH3-swapped baits, to CDC25 | Protein-protein interaction distance between Abp1 SH3-swapped baits, to CTTN | Protein-protein interaction distance between Abp1 SH3-swapped baits, to CYK3 | Protein-protein interaction distance between Abp1 SH3-swapped baits, to DBNL | Protein-protein interaction distance between Abp1 SH3-swapped baits, to FUS1 | Protein-protein interaction distance between Abp1 SH3-swapped baits, to HCLS1 | Protein-protein interaction distance between Abp1 SH3-swapped baits, to HOF1 | Protein-protein interaction distance between Abp1 SH3-swapped baits, to HSE1 | Protein-protein interaction distance between Abp1 SH3-swapped baits, to LSB1 | Protein-protein interaction distance between Abp1 SH3-swapped baits, to LSB3 | Protein-protein interaction distance between Abp1 SH3-swapped baits, to MYO3 | also measured
CYK3 (protein, UniProt Q07533 1-885, looked up) Cytokinesis protein 3: MATNLTSLKPPFKVKARYGWSGQTKGDLGFLEGDIMEVTRIAGSWFYGKLLRNKKCSGYFPHNFVILLEERLNSSTENGRQPSKIVESFEKSNKVVIPPVPSRYSDERPRPKKKLSSSMPNSPKKPVDSLTKARKAKSKEMVNEKNIYNTQSSRHHNNSAPNLPLASHSKPQVRNFEESMNNPLPPLPPLPDLDNMRKTDKRAPKKSYSANDLHMARSSREYNYYKDNQKFYDGFIPEKRYSLEEDSISSGLFSNSQYLNDSACSSENSFALMSDFSATSAGSFARHKYAQSFSDSLQRSQNANGCSTKINDSQEFGDSNASSRNGKMGDILRKIIIPKRNTNIYSSSVSSPKSPKAYPKLPDIQNLNLSATPDEARDWIAVKCHLNRARTLTKYDKHPRYMRALEENRDLILHPQDSIYNGLNTNEVKGNTKPGLVDVELAELNIEYIDKMTWKRCIRDGTMTLDSWAQTTFSARYSTVLEKLRGIYIFCTEMFALTDDNGTSDFSAEPQNLEKILYRKHCTPYELTWLFKKLANSLGITCEIVIGFLKTPSAINWEFKYNHCWLRILVNKEWRFIDVILGNVTNPIHEFVNNRKIKKAENSYFLMAPLEMIYTHIPPREFEQHIVPSIDQLSALYLPLVFPSFFKNELKLYKFSTALSFLEDSEIYECSLEIPNDVEVFASVVIPTDNEEASSAYRNMELALTQIKKQKAESGRRIALIKAVLPPNVNKGSLYIHSGVRGTQTSIANIHPLSMMVPLTHKGSNMKYEFVIKIPSESIQKIELYIVEPQSRYLFVGNEYSFEVIQSPSDGIVYSSDEGPNQNRKQPMAIKSPSGRVHELVKSDPHFPYGTWKGSIKIKEPGVWSALVIADSGIGWSVFAEWLCV | 26.78 | 25.11 | 17.6 | 11.87 | 21.68 | 20.06 | 16.1 | 26.08 | 22.45 | 5.497 | 21.37 | 0.00 | 25.11 | 14.91 | 28.59 | 10.8 | 25.16 | 31.53 | 31.13 | 30.11 | Protein-protein interaction distance between Abp1 SH3-swapped baits, to MYO5: 29.49; Protein-protein interaction distance between Abp1 SH3-swapped baits, to NBP2: 15.74; Protein-protein interaction distance between Abp1 SH3-swapped baits, to PEX13: 29.86; Protein-protein interaction distance between Abp1 SH3-swapped baits, to PIN3: 28.76; Protein-protein interaction distance between Abp1 SH3-swapped baits, to RVS167: 28.09; Protein-protein interaction distance between Abp1 SH3-swapped baits, to SDC25: 15.21; Protein-protein interaction distance between Abp1 SH3-swapped baits, to SHO1: 24.75; Protein-protein interaction distance between Abp1 SH3-swapped baits, to SLA1-1: 5.436; Protein-protein interaction distance between Abp1 SH3-swapped baits, to SLA1-2: 14.43; Protein-protein interaction distance between Abp1 SH3-swapped baits, to SLA1-3: 31.65; Protein-protein interaction distance between Abp1 SH3-swapped baits, to YSC84: 31.42
FUS1 (protein, UniProt P11710 1-512, looked up) Nuclear fusion protein FUS1: MVATIMQTTTTVLTTVAAMSTTLASNYISSQASSSTSVTTVTTIATSIRSTPSNLLFSNVAAQPKSSSASTIGLSIGLPIGIFCFGLLILLCYFYLKRNSVSISNPPMSATIPREEEYCRRTNWFSRLFWQSKCEDQNSYSNRDIEKYNDTQWTSGDNMSSKIQYKISKPIIPQHILTPKKTVKNPYAWSGKNISLDPKVNEMEEEKVVDAFLYTKPPNIVHIESSMPSYNDLPSQKTVSSKKTALKTSEKWSYESPLSRWFLRGSTYFKDYGLSKTSLKTPTGAPQLKQMKMLSRISKGYFNESDIMPDERSPILEYNNTPLDANDSVNNLGNTTPDSQITSYRNNNIDLITARPHSVIYGTTAQQTLETNFNDHHDCNKSTEKHELIIPTPSKPLKKRKKRRQSKMYQHLQHLSRSKPLPLTPNSKYNGEASVQLGKTYTVIQDYEPRLTDEIRISLGEKVKILATHTDGWCLVEKCNTQKGSIHVSVDDKRYLNEDRGIVPGDCLQEYD | 18.44 | 16.64 | 8.021 | 22.67 | 12.53 | 10.5 | 7.121 | 17.24 | 12.64 | 14.2 | 13.46 | 14.91 | 16.42 | 0.00 | 20.02 | 21.29 | 16.23 | 23.45 | 23.48 | 21.97 | Protein-protein interaction distance between Abp1 SH3-swapped baits, to MYO5: 21.47; Protein-protein interaction distance between Abp1 SH3-swapped baits, to NBP2: 8.037; Protein-protein interaction distance between Abp1 SH3-swapped baits, to PEX13: 21.37; Protein-protein interaction distance between Abp1 SH3-swapped baits, to PIN3: 21.08; Protein-protein interaction distance between Abp1 SH3-swapped baits, to RVS167: 19.5; Protein-protein interaction distance between Abp1 SH3-swapped baits, to SDC25: 24.28; Protein-protein interaction distance between Abp1 SH3-swapped baits, to SHO1: 16.07; Protein-protein interaction distance between Abp1 SH3-swapped baits, to SLA1-1: 17.65; Protein-protein interaction distance between Abp1 SH3-swapped baits, to SLA1-2: 8.845; Protein-protein interaction distance between Abp1 SH3-swapped baits, to SLA1-3: 23.5; Protein-protein interaction distance between Abp1 SH3-swapped baits, to YSC84: 23.88

Reference: paper PMC7954794, “Protein context shapes the specificity of SH3 domain-mediated interactions in vivo” (Nature Communications, 2021)
